Source: US8536117B2, “Oxidant resistant apolipoprotein A-1 and mimetic peptides” (The Cleveland Clinic Foundation, priority 2007, dated 2013)
“Also recorded” adds a separate entry of the source.

Assays:
[1] = tested on: human low density lipoprotein; assay: Lipid binding activity assay: inhibition of phospholipase C (PLC)-mediated aggregation of LDL; format: biochemical; settings: for lipid binding activity after MPO modification: PLC mediated LDL aggregation assay, MPO at varying H2O2:ApoA1 mole ratios
Procedure: (§1) MPO at a final concentration of 57 nmol/L, prepared as previously described, was added to ApoA1 at 100 μg/mL (3.5 μmol/L) that had been extensively dialyzed against MPO reaction buffer. The reaction was initiated by adding hydrogen peroxide at varying mole ratios to ApoA1 in 4 aliquots at 15-minute intervals at 37° C., and continuing the incubation for 90 minutes, at which time 2 mmol/L L-methionine was added to quench the reaction. For chemical modification of ApoA1, sodium hypochlorite (NaOCI) was added to 100 μg/mL ApoA1 in MPO buffer at varying concentrations in 4 aliquots at 15 minutes intervals at 37° C. After a total incubation time of 60 minutes, 2 mmol/L L-metbionine was added to quench the reaction.
Lipid binding activity of ApoA1 was assessed via the inhibition of phospholipase C (PLC)-mediated aggregation of human low density lipoprotein, performed as previously described. We have previously shown that this assay give results similar to those observed by the DMPC dispersion clearance assay, but it is more sensitive and requires less ApoA1. The final concentration of apoA1 used in this assay as 12.5 μg/mL. which was sufficient to decrease the initial rate LDL aggregation by ≈75%.

[2] = tested on: RAW 264.7 murine macrophage cells; assay: MPO/H2O2/Cl- modification of ApoA1, then ABCA1-dependent cholesterol efflux assay; format: cell-based; settings: for ABCA1-dependent cholesterol acceptor activity after MPO modification: MPO/H2O2/Cl- system at varying (increasing) H2O2:ApoA1 mole ratios; for MPO mediated loss of cholesterol acceptor activity, high dose: H2O2:apoAI = 15:1, 3MV with or without the N-terminal methionine; for loss of cholesterol acceptor activity: MPO modification at H2O2:ApoA1 ratio of 1.4
Procedure: as §1
(§2) RAW 264.7 murine macrophage cells were labeled with [3H] cholesterol and treated with 0.3 mmol/L 8Br-cAMP to induce ABCA1 activity, as previously described. The cells were washed and chased for 4 hours in serum-free medium in the presence of 0.3 mmol/L 8Br-cAMP and the presence or absence of various ApoA1 preparations. The radioactivity in the chase media was determined after brief centrifugation to pellet debris. Radioactivity in the cells was determined by extraction in hexane:isopropanol (3:2) with the solvent evaporated in a scintillation vial prior to counting. The percent cholesterol efflux was calculated as 100×(medium dpm)/(medium dpm+cell dpm).

[3] = tested on: RAW 264.7 murine macrophage cells; assay: ABCA1-dependent cholesterol efflux assay; format: cell-based; settings: unoxidised protein/peptide, 4 hr incubation with [3H]cholesterol labeled RAW264.7 cells pretreated with 0.3 mM 8Br-cAMP
Procedure: ApoA1 (filled circles, solid line) and reductively methylated ApoA1 (open circles, dashed line) were subjected to modification by MPO at varying H2O2:ApoA1 mole ratios. These proteins were then assayed for ABCA1 dependent cellular cholesterol acceptor activity during a 4 hr incubation at 5 μg/ml with cholesterol labeled RAW264.7 cells, which had been treated with 0.3 mM 8Br-cAMP to induce ABCA1. Data are means±S.D. of triplicate determinations, when no bars appear, the S.D. is within the symbol.
as §2

[4] = Alpha helix content by CD (K2d algorithm); format: physicochemical; settings: for loss of alpha helix content after MPO modification: MPO/H2O2 dose dependent; for alpha helix content: K2d algorithm, unmodified protein
Description: We examined the role of ApoA1 tryptophan residues next by altering each of the four tryptophan residues to either leucine (rh-ApoA1 4WL) or phenylalanine (rh-ApoA1 4WF). […] Thus, the loss of efflux and lipid binding activity of the 4WL variant cannot be attributed to loss of helical content.

[5] = tested on: RAW 264.7 murine macrophage cells; assay: HOCl (sodium hypochlorite) modification of ApoA1, then ABCA1-dependent cholesterol efflux assay; format: cell-based; settings: increasing doses of HOCl (varying HOCl:ApoA1 mole ratios)
Procedure: as §1, §2

[6] = DMPC emulsion clearance assay (lipid binding); format: biochemical; settings: 25 μg protein, 125 μg DMPC, absorbance at 325 nm, 24° C.
Procedure: FIGS. 7 (A-B) illustrate plots showing that rh-ApoA1 4WF binds lipid as well as rh-ApoA1 and its lipid binding activity is resistant to MPO mediated oxidation. A. Dimyristoyl phosphatidylcholine (DMPC) emulsions (125 μg) were prepared and incubated without addition (solid thick line) or with the addition of 25 μg rh-ApoA1 (solid thin line) or rh-ApoA1 4WF (dotted line). Lipid binding and solubilization was monitored by loss of turbidity by reading absorbance at 325 nm over time at 24° C. […] B. rh-ApoA1 (filled circles, solid line) and rh-ApoA1 4WF (open circles, dashed line) were subjected to modification by MPO at varying H2O2:ApoA1 mole ratios. These proteins were then assayed for lipid binding activity by prevention of phospholipase C dependent LDL aggregation. Data are normalized to the lipid binding activity of rh-ApoA1 treated in the absence of H2O2. Data are means±S.D. of triplicate determinations. *, p<0.05; and **, p<0.001 vs. rh-ApoA1 4WF at the same H2O2: ApoA1 mole ratio, respectively, by two tailed t-test.

| lipid binding activity (DMPC clearance) [6] | lipid binding activity (DMPC clearance) ([6]; listed as 4WF variant) | Molecule | decrease of the initial rate of LDL aggregation ([1]; apoA1 final concentration 12.5 μg/mL) | ABCA1-dependent cholesterol acceptor activity after MPO modification [2] | ABCA1-dependent cholesterol acceptor activity [3] | loss of alpha helix content after MPO modification [4] | cholesterol acceptor (efflux) activity after HOCl treatment [5] | lipid binding activity after MPO modification [1] | MPO mediated loss of cholesterol acceptor activity, high dose [2] | loss of cholesterol acceptor activity [2] | alpha helix content [4] | ABCA1-dependent cholesterol acceptor activity ([3]; listed as 4WF variant) | ABCA1-dependent cholesterol acceptor activity ([3]; listed as 4WL variant) |
| --- | --- | --- | --- | --- | --- | --- | --- | --- | --- | --- | --- | --- | --- |
| – | – | ApoA1: human plasma-derived ApoA1 | ≈ 75% | declined in a similar fashion | robust and equivalent | similarly susceptible | – | – | – | – | – | – | – |
| – | – | methylated ApoA1: ApoA1 subjected to reductive methylation, leading to 92% lysine modification | – | declined in a similar fashion | robust and equivalent | similarly susceptible | – | – | – | – | – | – | – |
| equivalent activity | – | rh-ApoA1: recombinant human ApoA1, with an additional methionine initiation codon and a 6-his tag at the N-terminus | – | inhibited by increasing MPO induced oxidation | yielded ABCA1 dependent cholesterol acceptor activity | susceptible to loss of alpha helical content | impaired by increasing doses of HOCl | diminished lipid binding activity | equally susceptible | negligible loss | 57% | – | – |
| – | – | rh-ApoA1 3MV: rh-ApoA1 with the three internal methionines converted to valines (protein, UniProt P02647 25-267, looked up, variant M86V M112V M148V) Apolipoprotein A-I: DEPPQSPWDRVKDLATVYVDVLKDSGRDYVSQFEGSALGKQLNLKLLDNWDSVTSTFSKLREQLGPVTQEFWDNLEKETEGLRQEVSKDLEEVKAKVQPYLDDFQKKWQEEVELYRQKVEPLRAELQEGARQKLHELQEKLSPLGEEVRDRARAHVDALRTHLAPYSDELRQRLAARLEALKENGGARLAEYHAKATEHLSTLSEKAKPALEDLRQGLLPVLESFKVSFLSALEEYTKKLNTQ | – | more sensitive to loss of cholesterol acceptor activity at low molar ratios | – | – | – | – | equally susceptible | lost about half of its cholesterol acceptor activity | – | – | – |
| – | equivalent activity | rh-ApoA1 4WF: rh-ApoA1 with each of the four tryptophan residues altered to phenylalanine (protein, UniProt P02647 25-267, looked up, variant W8F W50F W72F W108F) Apolipoprotein A-I: DEPPQSPFDRVKDLATVYVDVLKDSGRDYVSQFEGSALGKQLNLKLLDNFDSVTSTFSKLREQLGPVTQEFFDNLEKETEGLRQEMSKDLEEVKAKVQPYLDDFQKKFQEEMELYRQKVEPLRAELQEGARQKLHELQEKLSPLGEEMRDRARAHVDALRTHLAPYSDELRQRLAARLEALKENGGARLAEYHAKATEHLSTLSEKAKPALEDLRQGLLPVLESFKVSFLSALEEYTKKLNTQ | – | maintained this activity even at an H2O2:ApoA1 ratio of 15 | – | susceptible to loss of alpha helical content | resistant to this treatment | resistant to MPO mediated inhibition; also recorded: did not loose its lipid binding activity | – | – | 77% | largely retained this activity | – |
| – | – | rh-ApoA1 4WL: rh-ApoA1 with each of the four tryptophan residues altered to leucine (protein, UniProt P02647 25-267, looked up, variant W8L W50L W72L W108L) Apolipoprotein A-I: DEPPQSPLDRVKDLATVYVDVLKDSGRDYVSQFEGSALGKQLNLKLLDNLDSVTSTFSKLREQLGPVTQEFLDNLEKETEGLRQEMSKDLEEVKAKVQPYLDDFQKKLQEEMELYRQKVEPLRAELQEGARQKLHELQEKLSPLGEEMRDRARAHVDALRTHLAPYSDELRQRLAARLEALKENGGARLAEYHAKATEHLSTLSEKAKPALEDLRQGLLPVLESFKVSFLSALEEYTKKLNTQ | – | – | – | – | – | – | – | – | 79% | – | lost the majority of this activity |
